Assay [1] deals with T1, human mesothelin recombinant protein (human, UniProt Q13421 296-580, limits assumed).
T1 construct: also called mesothelin protein; MSLN
Description: ELISA, plate coated with mesothelin at 1 ug/mL, detection with anti-human Kappa light chains. As to the method:
(§1) 100 μL of mesothelin in a coating buffer at a concentration of 1 μg/mL was added to and coated on each well of a plate. The plates were sealed and incubated at 4° C. overnight. The wells were aspirated and washed with 300 μL of PBST (0.05% Tween 20) for 3 times. The wells were blocked by adding 200 μL of PBS-5% skim milk and incubated at 37° C. for 1 hour. The wells were aspirated and washed with 300 μL/well of PBST (0.05% Tween 20) for 3 times. 100 μL of 400 ng ADC sample diluted with PBS was added to each well, and the plates were then incubated at 37° C. for 1 hour. The wells were aspirated and washed with 300 μL of PBST (0.05% Tween 20) for 3 times. 50 μl of anti-human Kappa light chains (1:5000) was added to each well, and the plates were incubated at 37° C. for 1 hour. The wells were aspirated and washed with 300 μL/well of PBST (0.05% Tween 20) for 3 times. 100 μl of TMB was added to each well, and the plates were incubated at room temperature for 15 minutes. The color development was stopped by adding 100 μL of 1N HCl.

Assay [2] addresses T1, human mesothelin recombinant protein. Nature of the assay: ELISA, plate coated with mesothelin 1 ug/mL, detection with anti-human kappa light chain antibody. How it is done: as §1
For assay [3] the target is unchanged. Description: SPR, Biacore T100, ADC captured on anti-human IgG-Fc CM5 chip, human mesothelin recombinant protein as analyte (3.7 to 100 nM), 1:1 Langmuir model. How it is done: (§2) The kinetic constant of the anti-mesothelin ADCs interaction against mesothelin was determined by surface plasma resonance (Biacore® T100, Biacore, Inc., Piscataway, N.J.). The flow cell of the CM5 wafer was fixed with approximately 10,000 reaction units (RU) of anti-human IgG-Fc (Biacore®) in 10 mM glycine pH 5.0 at 10 μL/min for 600 seconds. 10 μg/mL of anti-mesothelin antibody and anti-mesothelin ADCs diluted in TBS at 10 μl/min were captured on CM5 chips. Four concentrations (from 3.7 to 100 nM) of human mesothelin recombinant protein and zero concentration (flow buffer) in 100 μl/min binding were recorded in PBS containing 1 mM CaCl₂ for 3 minutes. The dissociation of the complex was measured for 10 minutes. The water surface was regenerated by injecting 3 M MgCl₂ and 3 mM EGTA at 10 μl/min for 60 seconds. The curve obtained after subtracting the reference and buffer signals was taken into the 1:1 Langmuir binding model using the Biacore® T100 evaluation software (Biacore®).

The target is the same in assay [4]. Nature of the assay: ELISA, plate coated with mesothelin protein, serial dilutions of antibody, non-linear regression. As to the method: (§3) ELISA plates were coated with 1˜2 μg/100 μl per well of mesothelin protein. Wells were rinsed for 3 times with PBS and blocked with 300 μl 5% MPBS per well for 2 hr at 37° C. After washing with PBS, wells were incubated with serial diluted mesothelin antibodies in 5% MPBS for 1.5 hours at 37° C. The plates were washed and goat polyclonal anti-human IgG-HRP antibody (1:10,000) (Jackson ImmunoResearch) was added into each well. The absorbance was measured as described above and the binding affinities of antibodies were calculated by non-linear regression with Prism software (GraphPad).

Assay [5] shares this target. Nature of the assay: ELISA, plate coated with mesothelin protein, serial dilutions of antibody, detection with anti-human IgG-HRP. As to the method: as §3
The target is the same in assay [6]. Nature of the assay: SPR, BIAcore T200, mesothelin coupled to CM5 chip, antibody injected (0.3125 nM to 40 nM), 25 degree C, 1:1 Langmuir model. As to the method:
Carboxymethylated dextran biosensor chips (CM5, Cytiva Inc.) were activated with N-ethyl-N′-(3-dimethylaminopropyl)-carbodiimide hydrochloride (EDC) and N-hydroxysuccinimide (NHS) according to the supplier's instructions. Mesothelin protein was diluted with 10 mM sodium acetate, pH 4.0, into 5 μg/ml before injection at a flow rate of 10 μL/minute to achieve approximately 1500 response units (RU) of coupled protein followed by the injection of 1M ethanolamine to block unreacted groups. For kinetics measurements, two-fold serial dilutions of anti-mesothelin mAb (0.3125 nM to 40 nM) were injected in HBS-EP+ Biacore running buffer provided by the manufacturer (Cytiva Inc.) at 25 degree C. at a flow rate of 30 μL/min, and binding responses on the mesothelin protein were corrected by subtraction of responses on a blank flow cell. Association rates (kon or ka) and dissociation rates (koff or kd) were calculated using a simple one-to-one Langmuir binding model with separate fittings of kon and koff was used. (Cytiva.™. Biacore Insight Evaluation Software).

The target is the same in assay [7]. Description: SPR, Biacore T100, antibody captured on anti-human IgG-Fc CM5 chip, human mesothelin recombinant protein as analyte (3.7 to 100 nM), 1:1 Langmuir model. How it is done:
as §2

T1 sequence (Q13421 other isoform, or with tags, fused parts or gaps limits assumed): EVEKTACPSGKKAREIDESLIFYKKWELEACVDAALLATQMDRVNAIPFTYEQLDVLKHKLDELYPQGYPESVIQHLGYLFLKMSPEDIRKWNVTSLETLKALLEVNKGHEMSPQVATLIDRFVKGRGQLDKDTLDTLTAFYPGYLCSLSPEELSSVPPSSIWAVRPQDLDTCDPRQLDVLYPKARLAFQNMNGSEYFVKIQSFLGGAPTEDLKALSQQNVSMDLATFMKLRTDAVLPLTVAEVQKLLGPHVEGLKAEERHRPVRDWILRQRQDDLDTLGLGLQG

B1: DCBPR2002-2(DBCO-vc-seco-DUBA)-2(DBCO-s-DM1) (other)
VH: QVQLVQSGAEVKKPGASVKVSCKASGYSFTGYTMNWVRQAPGQGLEWMGLITPYNGASSYNQKFRGRVTMTRDTSISTAYMELSRLRSDDTAVYYCARGGYDGRGFDYWGQGTLVTVSS
VL: EIVLTQSPATLSLSPGERATLSCSASSSVSYMHWYQQKPGQAPRLLIYDTSKLASGIPARFSGSGSGTDFTLTISSLEPEDFAVYYCQQWSKHPLTFGQGTKVEIKR
modifications: DBCO-vc-seco DUBA (2 per antibody) and DBCO-S-DM1 (2 per antibody) linked through GlcNAz to the tri-mannosyl N-glycan of the heavy chain constant region (DAR ~4)
As for B1, in assay [1], the Kd came to 0.0732 nM. Moreover, the “EC50 (read off the curve)” value in assay [2] is ~0.07 nM.

B2: DCBPR2002-4(DBCO-s-DM1) (other)
VH: QVQLVQSGAEVKKPGASVKVSCKASGYSFTGYTMNWVRQAPGQGLEWMGLITPYNGASSYNQKFRGRVTMTRDTSISTAYMELSRLRSDDTAVYYCARGGYDGRGFDYWGQGTLVTVSS
VL: EIVLTQSPATLSLSPGERATLSCSASSSVSYMHWYQQKPGQAPRLLIYDTSKLASGIPARFSGSGSGTDFTLTISSLEPEDFAVYYCQQWSKHPLTFGQGTKVEIKR
modifications: DBCO-S-DM1 linked through GlcNAz to the tri-mannosyl N-glycan of the heavy chain constant region; 4 per antibody (DAR ~4)
As to B2, the Kd in assay [1] was 0.145 nM.

B3: DCBPR2002-2(DBCO-vc-MMAE)-2(DBCO-vc-seco-DUBA) (other)
VH: QVQLVQSGAEVKKPGASVKVSCKASGYSFTGYTMNWVRQAPGQGLEWMGLITPYNGASSYNQKFRGRVTMTRDTSISTAYMELSRLRSDDTAVYYCARGGYDGRGFDYWGQGTLVTVSS
VL: EIVLTQSPATLSLSPGERATLSCSASSSVSYMHWYQQKPGQAPRLLIYDTSKLASGIPARFSGSGSGTDFTLTISSLEPEDFAVYYCQQWSKHPLTFGQGTKVEIKR
modifications: DBCO-vc-MMAE (2 per antibody) and DBCO-vc-seco DUBA (2 per antibody) linked through GlcNAz to the tri-mannosyl N-glycan of the heavy chain constant region (DAR ~4)
As for B3, the Kd is 0.158 nM in assay [1] and 0.0256 nM in assay [3].

B4: DCBPR2002-4(DBCO-vc-MMAE) (other)
VH: QVQLVQSGAEVKKPGASVKVSCKASGYSFTGYTMNWVRQAPGQGLEWMGLITPYNGASSYNQKFRGRVTMTRDTSISTAYMELSRLRSDDTAVYYCARGGYDGRGFDYWGQGTLVTVSS
VL: EIVLTQSPATLSLSPGERATLSCSASSSVSYMHWYQQKPGQAPRLLIYDTSKLASGIPARFSGSGSGTDFTLTISSLEPEDFAVYYCQQWSKHPLTFGQGTKVEIKR
modifications: DBCO-vc-MMAE linked through GlcNAz to the tri-mannosyl N-glycan of the heavy chain constant region; 4 per antibody (DAR 3.89 by LC-MS)
Consider B4, for which the Kd in assay [1] worked out at 0.133 nM; in assay [3] it was 0.0217 nM.

B5: DCBPR2002-4(DBCO-vc-seco-DUBA) (other)
VH: QVQLVQSGAEVKKPGASVKVSCKASGYSFTGYTMNWVRQAPGQGLEWMGLITPYNGASSYNQKFRGRVTMTRDTSISTAYMELSRLRSDDTAVYYCARGGYDGRGFDYWGQGTLVTVSS
VL: EIVLTQSPATLSLSPGERATLSCSASSSVSYMHWYQQKPGQAPRLLIYDTSKLASGIPARFSGSGSGTDFTLTISSLEPEDFAVYYCQQWSKHPLTFGQGTKVEIKR
modifications: DBCO-vc-seco DUBA linked through GlcNAz to the tri-mannosyl N-glycan of the heavy chain constant region; 4 per antibody (DAR ~4)
Consider B5, for which, in assay [1], the Kd came out at 0.0975 nM.

B6: DCBPR2002-2(DBCO-vc-MMAE)-2(DBCO-s-DM1) (other)
VH: QVQLVQSGAEVKKPGASVKVSCKASGYSFTGYTMNWVRQAPGQGLEWMGLITPYNGASSYNQKFRGRVTMTRDTSISTAYMELSRLRSDDTAVYYCARGGYDGRGFDYWGQGTLVTVSS
VL: EIVLTQSPATLSLSPGERATLSCSASSSVSYMHWYQQKPGQAPRLLIYDTSKLASGIPARFSGSGSGTDFTLTISSLEPEDFAVYYCQQWSKHPLTFGQGTKVEIKR
modifications: DBCO-vc-MMAE (2 per antibody) and DBCO-S-DM1 (2 per antibody) linked through GlcNAz to the tri-mannosyl N-glycan of the heavy chain constant region (DAR ~4)
As to B6, the Kd in assay [1] stood at 0.136 nM.

B7: humanized antibody HuSS1 (DCBPR2002) (antibody, V domains shown)
VH: QVQLVQSGAEVKKPGASVKVSCKASGYSFTGYTMNWVRQAPGQGLEWMGLITPYNGASSYNQKFRGRVTMTRDTSISTAYMELSRLRSDDTAVYYCARGGYDGRGFDYWGQGTLVTVSS
VL: EIVLTQSPATLSLSPGERATLSCSASSSVSYMHWYQQKPGQAPRLLIYDTSKLASGIPARFSGSGSGTDFTLTISSLEPEDFAVYYCQQWSKHPLTFGQGTKVEIKR
notes: also called HuSS1-HH; HuSS1 (HH)
Consider B7, for which the Kd worked out at 0.0924 nM in assay [1], 0.0499 nM in assay [4], 0.0025 nM in assay [6] and 0.0169 nM in assay [7]. Further, the “EC50 (read off the curve)” value was ~0.09 nM in assay [2] and ~0.05 nM in assay [5]. Also, in assay [6], the koff was found to be 1.12e-05 s⁻¹. The on-rate (kon) in assay [6] stood at 4.49e+06 M⁻¹ s⁻¹.

B8: humanized SS1 4D5 (HdSS1) (antibody, V domains shown)
VH: EVQLVESGGGLVQPGGSLRLSCAASGYSFTGYTMNWVRQAPGKGLEWVALITPYNGASSYNQKFRGRFTISRDDSKNTLYLQMNSLRAEDTAVYYCARGGYDGRGFDYWGQGTLVTVSS
VL: DIQMTQSPSSLSASVGDRVTITCSASSSVSYMHWYQQKPGKAPKLLIYDTSKLASGVPSRFSGSGSGTDFTLTISSLQPEDFATYYCQQWSKHPLTFGQGTKVEIKR
notes: also called HdSS1 HH; HdSS1 (HH)
Take B8: the Kd in assay [4] was determined as 26.1 nM.

The record behind these values is US20210386866A1 (DEVELOPMENT CENTER FOR BIOTECHNOLOGY, published 2021).
